Measured values taken from PMC5600424, “An efficient method for the preparation of preferentially heterodimerized recombinant S100A8/A9 coexpressed in Escherichia coli” (Biochemistry and Biophysics Reports, 2016).
Blank lines part the entries; values can stand above or below the binder they belong to.

Legend:
Assay in all cases: SEC; SEC-HPLC (COSMOSIL 5Diol-300-II), 50 mM sodium phosphate buffer pH 6.0, 1.0 mL/min, 30 ug of cation-exchange peak fraction injected; mass estimated with a gel filtration calibration kit
[1] = target: T1, human S100A9 (human), P06702; settings: remark: other sources report otherwise
T1 chain: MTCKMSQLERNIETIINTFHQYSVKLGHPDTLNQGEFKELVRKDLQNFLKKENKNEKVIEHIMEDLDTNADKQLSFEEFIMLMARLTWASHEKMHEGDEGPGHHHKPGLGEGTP

[2] = target: the molecule itself
human S100A9 = target: T2, human S100A9 (human, UniProt P06702 1-114); settings: both partners purified
T2 construct: human S100A9, UniProt P06702; codon-optimised synthetic gene in pET21a (NdeI/BamHI), expressed without any tags; also called MRP-14
T2 sequence (looked up): T1 chain

- stoichiometry N [1]: 2
B1: human S100A9, P06702 1-114 (natural protein)
chain: T1 chain

B2: S100A8/A9 heterodimer (complex, human)
chain 1: MLTELEKALNSIIDVYHKYSLIKGNFHAVYRDDLKKLLETECPQYIRKKGADVWFKELDINTDGAVNFQEFLILVIKMGVAAHKKSHEESHKE
chain 2: T1 chain
notes: human S100A8, UniProt P05109; as the chain of m1; no tags; human S100A9, UniProt P06702; as the chain of m2; Heterodimer formed during coexpression; used here only for its own association to a higher complex; also called MRP-8/14; calprotectin; source: E. coli T7 Express, coexpressed from pET21-S100A8-S100A9, purified (cation-exchange chromatography, Peak 1)
- binding result [2]: binds

- binding result (human S100A9): binds
B3: human S100A8 (natural protein, UniProt P05109 1-93, looked up)
chain: B2 chain 1
notes: human S100A8, UniProt P05109; codon-optimised synthetic gene in pET21a (NdeI/BamHI), expressed without any tags; also called MRP-8
- stoichiometry N [2]: 2
